These results are taken from patent US20200407445A1 (ITEOS THERAPEUTICS, published 2020).

The target in experiment [1] is T1, human TIGIT expressed on cells (human, UniProt Q495A1 22-244).
T1 sequence (looked up): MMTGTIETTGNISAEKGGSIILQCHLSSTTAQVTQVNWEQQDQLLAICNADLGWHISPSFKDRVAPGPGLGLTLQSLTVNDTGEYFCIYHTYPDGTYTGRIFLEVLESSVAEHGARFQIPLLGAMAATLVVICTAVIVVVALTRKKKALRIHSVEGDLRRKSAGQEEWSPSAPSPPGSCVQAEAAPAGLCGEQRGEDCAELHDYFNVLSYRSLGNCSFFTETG
Briefly: cell-based or functional assay.

Experiment [2] deals with T1, human TIGIT expressed on cells. Briefly: flow cytometry, primary CD8+ T cells of healthy human PBMC, MFI. How it is done: Isolated human PBMCs from healthy volunteers were analysed for binding by antagonist anti-TIGIT antibodies. Cells were distributed at 1×10⁵ cells per well. Cells were incubated with anti-CD16 (Clone 3G8, BioLegend 302002), CD32 (Clone FLI8.26, BD Bioscience 557333) and CD64 (BD Bioscience 555525) at room temperature for 10 min, and the indicated anti-human TIGIT antibody clones were directly added at a final concentration of 8; 4; 2; 1; 0.5; 0.25; 0.125; 0.062; 0.031; 0.016; 8×10⁻³ and 4×10⁻³ nM in FACS buffer and incubated for 20 min at 4° C. […] Then, cells were washed and incubated with the following antibodies and LVD mix: anti-CD4-PercP-Cy5.5 (clone A161A1, BioLegend 357414); anti-CD8-BV510 (clone SK1, BD Bioscience 563919) and LVD efluor 660 (eBioscience 65-0864-18).
The EC50 values for binding to CD8+ human primary T cells were calculated using the MFI signal on living TIGIT+CD8+ T cells.
In general terms: In flow cytometry, cells or beads pass a laser one at a time.

For experiment [3] the target is unchanged. The experiment in a line: flow cytometry, competition with CD155-His (15 ug/ml) on Jurkat-hTIGIT.
Experiment [4] has the same target. Briefly: flow cytometry on Jurkat-hTIGIT. As for the experimental part:
Antibodies were incubated with the cells for 20 min at 4° C. in FACS buffer. […] Fluorescence intensity was analysed using LSR BD Fortessa and cell binding was recorded as the median fluorescence intensity of PE in cells expressing TIGIT at their surface.
The half-maximal concentration of binding (EC50) to Jurkat-hTIGIT was calculated using a four-variable curve-fit equation in Prism.

For experiment [5], the target named is T2, recombinant human TIGIT protein (construct not stated) (human, UniProt Q495A1 22-141, limits assumed).
T2 construct: also called hTIGIT (Creative Biomart); recombinant TIGIT protein
T2 sequence (looked up): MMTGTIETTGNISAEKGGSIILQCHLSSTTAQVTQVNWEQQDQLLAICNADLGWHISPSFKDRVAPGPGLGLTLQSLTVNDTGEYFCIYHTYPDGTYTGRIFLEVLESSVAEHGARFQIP
The experiment in a line: Biacore T200, IgG captured by anti-human Fc, antigen in solution, 1:1 kinetic model. How it is done: Biosensor analysis was conducted at 25° C. in a HBS-EP buffer system (10 mM HEPES pH 7.3, 150 mM NaCl, 3 mM EDTA, 0.05% Tween20) using Biacore T200 technology, CMS sensor chip (run at Novalix, France). The sample hotel was maintained at 8° C. Goat anti-human IgG capture antibody (Fcγ fragment specific, Jackson ImmunoResearch Laboratories) was immobilized (10000 RU) to both flow cells of the sensor chip using standard amine coupling chemistry. This surface type provided a format for reproducibly capturing fresh analysis antibody after each regeneration step. Flow cell 2 was used to analyse captured antibody while flow cell 1 was used as a reference flow cell. […] Two blank (buffer) injections also were run and used to assess and subtract system artefacts. The association (300 s) and dissociation (600 s) phases for all antigen concentrations were performed at a flow rate of 30 uL/min. The surface was regenerated with three sequential injections (15 s, 15 s and 60 s) of 10 mM glycine-HCl, pH 1.5. The obtained sensorgrams were fitted globally to a 1:1 model (assuming the same kinetic values for all applied concentrations).
(In general: In SPR one partner is held on a chip, and binding of the other changes the refractive index at the surface.)

The target in experiment [6] is T1, human TIGIT expressed on cells. The experiment in a line: flow cytometry, primary CD8+ T cells of cancer patients' PBMC, MFI. How it is done:
Cells were distributed at 1×10^5 cells per well. […] Then, cells were washed and incubated with the following antibodies and life viability dye (LVD) mix: anti-CD4-PercP-Cy5.5 (clone A161A1, BioLegend 357414); anti-CD8-BV510 (clone SK1, BD Bioscience 563919) and LVD efluor 520 (eBioscience 65-0867-14). Cells were washed and fixed and surface staining was quantified using BD LSR Fortessa. Flow cytometry data was analysed using FlowJo V10.1. TIGIT MFI on gated LVD-TIGIT+CD8+ cells was used to calculate EC50 values.

The target is the same in experiment [7]. The experiment in a line: cell-based or functional assay. The source holds these as a separate data set.

As a reminder, the EC50 is the concentration giving half of the maximal effect. Broadly, the IC50 is the midpoint of a concentration-inhibition curve. As a reminder, the Kd is the equilibrium constant for the complex coming apart. As a reminder, the koff is a measure of how fast the partners let go of each other.

B1: 22G2 (comparative anti-TIGIT antibody, human IgG1) (antibody, V domains shown)
VH: QVHLQESGPGLVKPSETLSLTCTVSGGSVSSGIYYWSWIRQPPGKGLEWIGYIYYSGSTNYNPSLKSRVTISVDTSKNQFSLKLSSVTAADTAVYYCARDYYVSGNYYNVDYYFFGVDVWGQGTTVTVSS
VL: EIVLTQSPATLSLSPGERATLSCRASQSVSSYLAWYQQKPGQAPRLLIYDASNRATGIPARFSGSGSGTDFTLTISSLEPEDFAVYYCQQRSNWPPLFTFGPGTKVDIK
notes: from WO2016/106302; made in HEK cells as human IgG1
Regarding B1, in experiment [1], the “EC50 (nM), IFNg, human primary CD8+ T cells” value stood at 0.41 nM; the “Fold change of EC50 over EC50 of best clone (31282_wu)” value (“Fold change of EC50 … (31282_wu)” below) is 3.1 fold; the “Induction over isotype control (fold change), IFNg, human primary CD8+ T cells + CD155 aAPC/CHO-K1” value amounted to 1.5 fold. For the same molecule, in experiment [2], the EC50 came out at 1.17 nM and the “Fold change of EC50 … (31282_wu)” value came out at 6.1 fold. In experiment [3], the “Fold change of IC50 over IC50 of best clone (31282_up)” value (“Fold change of IC50” for short) is 2.2 fold and the IC50 was 0.09 nM. Moreover, in experiment [4], a half-maximal response (EC50) required 0.32 nM and the “Fold change of EC50 … (31282_wu)” value stood at 3 fold. Further, in experiment [5], the Kd stood at 0.071 nM and the koff is 0.000178 s⁻¹. In experiment [6], it took 0.37 nM to reach a half-maximal effect (EC50) and the “Fold change of EC50 over EC50 of best clone (31282)” value (from here on “Fold change of EC50 … (31282)”) turned out to be 3.1 fold. Besides, in experiment [7], the “EC50 (nM), luciferase, Jurkat-hTIGIT” value was determined as 5.2 nM; the “Fold change of EC50 over EC50 of best clone (31282_up)” value was 1.6 fold; the “Induction over Isotype control (fold change), luciferase, Jurkat-hTIGIT + CD155 aAPC/CHO-K1” value amounted to 5.3 fold.

B2: 31C6 (MEB125.31C6.A1.205 VH4/VL1; comparative anti-TIGIT antibody, human IgG1) (antibody, V domains shown)
VH: EVQLVQSGAEVKKPGASVKVSCKASGYTFSSYVMHWVRQAPGQGLEWIGYIDPYNDGAKYAQKFQGRVTLTSDKSTSTVYMELSSLRSEDTAVYYCARGGPYGWYFDVWGQGTTVTVSS
VL: DIQMTQSPSSLSASVGDRVTITCRASEHIYSYLSWYQQKPGKAPKLLIYNAKTLAEGVPSRFSGSGSGTDFTLTISSLQPEDFATYYCQHHFGSPLTFGQGTRLEIK
notes: from WO2016/028656; made in HEK cells as human IgG1; also called 3106 (as the text prints it)
Consider B2, for which, in experiment [1], the “EC50 (nM), IFNg, human primary CD8+ T cells” value is 0.3 nM; the “Fold change of EC50 … (31282_wu)” value was determined as 2.3 fold; the “Induction over isotype control (fold change), IFNg, human primary CD8+ T cells + CD155 aAPC/CHO-K1” value was 1.6 fold. Besides, in experiment [2], the EC50 was determined as 0.39 nM and the “Fold change of EC50 … (31282_wu)” value was 2 fold. In addition, in experiment [3], the “Fold change of IC50” value turned out to be 1.7 fold and the IC50 is 0.07 nM. In experiment [4], a half-maximal response (EC50) required 0.13 nM and the “Fold change of EC50 … (31282_wu)” value turned out to be 1.2 fold. In experiment [5], the Kd was found to be 0.067 nM and the koff came to 0.000209 s⁻¹. Also, in experiment [6], the EC50 is 0.18 nM and the “Fold change of EC50 … (31282)” value amounted to 1.5 fold. In addition, in experiment [7], the “EC50 (nM), luciferase, Jurkat-hTIGIT” value stood at 5.3 nM; the “Fold change of EC50 over EC50 of best clone (31282_up)” value amounted to 1.6 fold; the “Induction over Isotype control (fold change), luciferase, Jurkat-hTIGIT + CD155 aAPC/CHO-K1” value was determined as 6.7 fold.

B3: TIG1 (comparative anti-TIGIT antibody, human IgG1) (antibody, V domains shown)
VH: DVQLVESGGGLVQPGGSRKLSCAASGFTFSNFGMHWVRQAPEKGLEWVAFISSGSSSIYYADTVKGRFTISRDNPKNTLFLQMTSLRSEDTAMYYCARMRLDYYAMDYWGQGTSVTVSS
VL: DVQITQSPSYLAASPGETITINCRASKSISKYLAWYQEKPGKTNKLLIYSGSTLQSGIPSRFSGSGSGTDFTLTISSLEPEDFAMYYCQQHNEYPWTFGGGTKLEIK
notes: from WO2017/152088; made in HEK cells as human IgG1
As to B3, in experiment [2], the EC50 was 0.38 nM and the “Fold change of EC50 … (31282_wu)” value is 2 fold. In experiment [3], the “Fold change of IC50” value stood at 1.6 fold and the IC50 was found to be 0.06 nM. Also, in experiment [4], it took 0.17 nM to reach a half-maximal effect (EC50) and the “Fold change of EC50 … (31282_wu)” value was determined as 1.6 fold. Moreover, in experiment [5], the Kd is 2.49 nM and the koff was determined as 0.0131 s⁻¹. Further, in experiment [6], the EC50 worked out at 0.33 nM and the “Fold change of EC50 … (31282)” value amounted to 2.7 fold.
